{
  "source": "paper doi:10.64898/2025.12.11.693820",
  "about": "“DNA binding and lesion recognition by the bacterial interstrand DNA crosslink glycosylase AlkX”",
  "target": "AbaAlkX Y300F (Acinetobacter baumannii, UniProt A0A0D5YK62 1-385, Y300F;V301L)",
  "test": "EMSA; 10 nM DNA; binding unaffected relative to WT",
  "conditions": "protein: recombinant; tags: His6-SUMO tag cleaved (3C); label: Cy5 on strand 1; FAM on strand 2 (both printed at 5' end); blunt; covalently crosslinked strands",
  "data": [
    {"binder": "2F-NM8-ICL DNA (dsDNA) DNA 1: TTTATTTTTATTTGACTTTTATTTTT DNA 2: AAAAATAAAAGTCAAATAAAAATAAA", "values": [
      {"measurement": "binding result", "result": "binds"}
    ]}
  ]
}
